B1: VF2468 11 (dsDNA)
DNA 1: AGCAGCGTCTCCCTTGAGTGATGG
DNA 2: CCATCACTCAAGGGAGACGCTGCT
B2: VF2468 15 (dsDNA)
DNA 1: AGCAACGTCATATTCAGTGAGGA
DNA 2: TCCTCACTGAATATGACGTTGCT
B3: VF2468 18 (dsDNA)
DNA 1: AGCAGAGTCAGACTTGAGTGAGGT
DNA 2: ACCTCACTCAAGTCTGACTCTGCT
B4: VF2468 19 TTC4 (dsDNA)
DNA 1: AGCAGAGTCTCTGAGAGTGAGGC
DNA 2: GCCTCACTCTCAGAGACTCTGCT
B5: VF2468 23 (dsDNA)
DNA 1: AGCAGCGACGCCTGGGAGTGAGGT
DNA 2: ACCTCACTCCCAGGCGTCGCTGCT
B6: VF2468 24 (dsDNA)
DNA 1: AGCAGCGTATCACATGAGTGAGGG
DNA 2: CCCTCACTCATGTGATACGCTGCT
B7: VF2468 28 (dsDNA)
DNA 1: AGCAGCTTCTCCTGGGAGTGAGGG
DNA 2: CCCTCACTCCCAGGAGAAGCTGCT
B8: VF2468 29 (dsDNA)
DNA 1: AGCAGGGTCAGGGCTGAGTGAGGC
DNA 2: GCCTCACTCAGCCCTGACCCTGCT
B9: VF2468 35 (dsDNA)
DNA 1: AGCAGTGTCCTAAGGGGGTGAGGA
DNA 2: TCCTCACCCCCTTAGGACACTGCT
B10: VF2468 68 (dsDNA)
DNA 1: AGCACCGTCCCCCTCAGTGAGGC
DNA 2: GCCTCACTGAGGGGGACGGTGCT
B11: VF2468 72 (dsDNA)
DNA 1: AGAAACGTCGTGGAGGAGTGAGGG
DNA 2: CCCTCACTCCTCCACGACGTTTCT
B12: VF2468 73 (dsDNA)
DNA 1: AGCAAAGTCTGTACTGAGTGAGGG
DNA 2: CCCTCACTCAGTACAGACTTTGCT
B13: VF2468 78 (dsDNA)
DNA 1: AGCAATGTCAAAAAGAGTGAGGC
DNA 2: GCCTCACTCTTTTTGACATTGCT
B14: VF2468 79 (dsDNA)
DNA 1: AGCACCGTGGCTTCGAGTGAGGC
DNA 2: GCCTCACTCGAAGCCACGGTGCT
B15: VF2468 38 (dsDNA)
DNA 1: AGCATCGTCTTCTGTGAGTGAGTA
DNA 2: TACTCACTCACAGAAGACGATGCT
B16: VF2468 62 (dsDNA)
DNA 1: TGCAGCGGCGTAGGGGAGTGAGGA
DNA 2: TCCTCACTCCCCTACGCCGCTGCA
B17: VF2468 66 GBF1 (dsDNA)
DNA 1: AGCAACGTCCATAGTGTGTGAGAA
DNA 2: TTCTCACACACTATGGACGTTGCT
B18: VF2468 69 MTX2 (dsDNA)
DNA 1: AGCAGCGGCGGCTGCAGTGAGGC
DNA 2: GCCTCACTGCAGCCGCCGCTGCT
B19: CCR5-224 15 KCNB2 (dsDNA)
DNA 1: ATGTTCCTCATCTCCCGAAACTGCAAATG
DNA 2: CATTTGCAGTTTCGGGAGATGAGGAACAT
B20: CCR5-224 16 (dsDNA)
DNA 1: GTCTTCCTGATGCTACCAAACTGGAAAAG
DNA 2: CTTTTCCAGTTTGGTAGCATCAGGAAGAC
B21: CCR5-224 21 (dsDNA)
DNA 1: GTCAACCTCAACACCTACAGACTGCAAAAG
DNA 2: CTTTTGCAGTCTGTAGGTGTTGAGGTTGAC
B22: CCR5-224 25 WBSCR17 (dsDNA)
DNA 1: GTTATCCTCAGCAAACTAAAACTGGAACAG
DNA 2: CTGTTCCAGTTTTAGTTTGCTGAGGATAAC
B23: CCR5-224 9 (dsDNA)
DNA 1: GTCATCTTCATCAAAAGGAACTGCAAAAC
DNA 2: GTTTTGCAGTTCCTTTTGATGAAGATGAC
B24: CCR5-224 11 TACR3 (dsDNA)
DNA 1: GTCATCTTCATCAGCATAAACTGTAAAGT
DNA 2: ACTTTACAGTTTATGCTGATGAAGATGAC
B25: CCR5-224 14 (dsDNA)
DNA 1: GTCCTGCTCAGCAAAAGAAACTGAAAAAG
DNA 2: CTTTTTCAGTTTCTTTTGCTGAGCAGGAC

These binders were tested against T1, VF2468 ZFN heterodimer (UniProt P14870;P14870 SEQ:1-324,SEQ:1-324) (assay: cell_activity; K562). Details: tags: FokI obligate heterodimer; in vitro selection used in vitro-translated protein; chain copies: 2 (stated heterodimer).
Protocol: (§1) PCR for 37 potential CCR5-224 substrates and 97 potential VF2468 substrates was performed with Phusion DNA Polymerase (NEB) and primers “[ZFN] […] fwd” and “[ZFN] […] rev” (Table 9) in 1× Phusion HF Buffer supplemented with 3% DMSO. Primers were designed using Primer3³³. The amplified DNA was purified with the Qiagen PCR Purification Kit, eluted with 10 mM Tris-HCl, pH 8.5, and quantified by 1K Chip on a LabChip GX instrument (Caliper Life Sciences) and combined into separate equimolar pools for the catalytically active and empty vector control samples. PCR products were not obtained for 3 CCR5 sites and 7 VF2468 sites, which excluded these samples from further analysis. Multiplexed Illumina library preparation was performed according to the manufacturer's specifications, except that AMPure XP beads (Agencourt) were used for purification following adapter ligation and PCR enrichment steps. Illumina indices 11 (“GGCTAC”) and 12 (“CTTGTA”) were used for ZFN-treated libraries while indices 4 (“TGACCA”) and 6 (“GCCAAT”) were used for the empty vector controls. Library concentrations were quantified by KAPA Library Quantification Kit for Illumina Genome Analyzer Platform (Kapa Biosystems). Equal amounts of the barcoded libraries derived from active- and empty vector-treated cells were diluted to 10 nM and subjected to single read sequencing on an Illumina HiSeq 2000 at the Harvard University FAS Center for Systems Biology Core facility. Sequences were analyzed using Protocol 9 for active ZFN samples and empty vector controls.

T1 sequence (P14870 other isoform, or with tags, fused parts or gaps, chain 1 of 2): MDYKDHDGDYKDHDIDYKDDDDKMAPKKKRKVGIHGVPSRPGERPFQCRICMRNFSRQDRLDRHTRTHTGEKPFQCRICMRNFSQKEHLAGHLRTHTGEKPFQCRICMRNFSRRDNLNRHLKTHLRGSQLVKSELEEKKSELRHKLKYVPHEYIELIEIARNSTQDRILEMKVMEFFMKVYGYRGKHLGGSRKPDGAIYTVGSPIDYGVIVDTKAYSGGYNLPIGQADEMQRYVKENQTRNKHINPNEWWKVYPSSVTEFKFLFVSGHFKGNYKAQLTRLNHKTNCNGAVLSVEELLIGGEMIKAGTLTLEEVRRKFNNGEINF
T1 sequence (P14870 other isoform, or with tags, fused parts or gaps, chain 2 of 2): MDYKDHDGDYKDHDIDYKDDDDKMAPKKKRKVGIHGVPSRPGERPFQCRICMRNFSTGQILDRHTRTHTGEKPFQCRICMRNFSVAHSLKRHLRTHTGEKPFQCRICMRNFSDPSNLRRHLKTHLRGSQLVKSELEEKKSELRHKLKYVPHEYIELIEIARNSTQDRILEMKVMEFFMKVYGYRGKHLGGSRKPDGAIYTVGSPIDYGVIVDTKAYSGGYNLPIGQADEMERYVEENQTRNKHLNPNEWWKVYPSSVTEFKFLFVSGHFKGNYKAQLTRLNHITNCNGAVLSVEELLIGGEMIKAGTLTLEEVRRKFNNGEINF

Point of comparison: B10, activity 0.28 % indels. Against it:
- B1 — lower, 0.04 % indels
- B2 — lower, 0.06 % indels
- B3 — lower, 0.1 % indels
- B4 — lower, 0.086 % indels
- B5 — higher, 1.1 % indels
- B6 — higher, 0.44 % indels
- B7 — higher, 0.32 % indels
- B8 — lower, 0.2 % indels
- B9 — lower, 0.13 % indels
- B11 — lower, 0.042 % indels
- B12 — higher, 1.3 % indels
- B13 — lower, 0.15 % indels
- B14 — lower, 0.029 % indels

What follows are binders tested against T1, VF2468 ZFN heterodimer (assay: cell_activity; K562; printed value). Details: tags: FokI obligate heterodimer; in vitro selection used in vitro-translated protein; chain copies: 2 (stated heterodimer).
Protocol: as §1

Point of comparison: B18, activity 0.3 % indels. Against it:
- B15 — lower, 0.082 % indels
- B16 — lower, 0.085 % indels
- B17 — higher, 0.64 % indels

What follows are binders tested against CCR5-224 ZFN heterodimer (UniProt P14870; SEQ:1-353,SEQ:1-352) (assay: cell_activity; K562; in vitro selected at 4 nM). Details: tags: FokI obligate heterodimer; in vitro selection used in vitro-translated protein; chain copies: 2 (stated heterodimer).
Protocol: as §1

Chain of CCR5-224 ZFN heterodimer (P14870 other isoform, or with tags, fused parts or gaps, chain 1 of 2): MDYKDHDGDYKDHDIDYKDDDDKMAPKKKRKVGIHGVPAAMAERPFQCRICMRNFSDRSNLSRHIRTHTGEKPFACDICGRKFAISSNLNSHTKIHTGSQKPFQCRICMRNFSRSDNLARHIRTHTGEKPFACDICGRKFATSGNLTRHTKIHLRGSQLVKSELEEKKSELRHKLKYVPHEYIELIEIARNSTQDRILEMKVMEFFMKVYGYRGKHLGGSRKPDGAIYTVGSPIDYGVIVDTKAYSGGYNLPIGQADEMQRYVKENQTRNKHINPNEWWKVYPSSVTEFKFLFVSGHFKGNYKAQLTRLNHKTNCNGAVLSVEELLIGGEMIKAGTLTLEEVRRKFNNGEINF
Chain of CCR5-224 ZFN heterodimer (P14870 other isoform, or with tags, fused parts or gaps, chain 2 of 2): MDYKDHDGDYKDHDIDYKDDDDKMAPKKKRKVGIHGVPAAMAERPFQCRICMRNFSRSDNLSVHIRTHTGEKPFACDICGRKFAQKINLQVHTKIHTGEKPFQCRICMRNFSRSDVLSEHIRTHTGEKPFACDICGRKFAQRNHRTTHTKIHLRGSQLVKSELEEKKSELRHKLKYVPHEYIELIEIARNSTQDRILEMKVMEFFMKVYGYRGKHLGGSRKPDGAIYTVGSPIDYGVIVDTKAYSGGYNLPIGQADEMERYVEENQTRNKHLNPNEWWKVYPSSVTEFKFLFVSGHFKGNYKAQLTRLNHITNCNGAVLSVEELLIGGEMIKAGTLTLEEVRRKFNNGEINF

Point of comparison: B24, activity 0.34 % indels. Against it:
- B19 — lower, 0.071 % indels
- B20 — lower, 0.019 % indels
- B21 — lower, 0.06 % indels
- B22 — lower, 0.12 % indels
- B23 — lower, 0.035 % indels
- B25 — lower, 0.025 % indels

Reference: US20200010818, “EVALUATION AND IMPROVEMENT OF NUCLEASE CLEAVAGE SPECIFICITY” (President and Fellows of Harvard College, published 2020)
